Results published in publication PMC12159506.

B1: SmBiT-C-CaSR-WT [not stated] / LgBiT-N-AP2σ-WT [not stated] (parent)
chain 1: not shown
chain 2: YGPDQRAQKKGDIILGGLFPIHFGVAAKDQDLKSRPESVECIRYNFRGFRWLQAMIFAIEEINSSPALLPNLTLGYRIFDTCNTVSKALEATLSFVAQNKIDSLNLDEFCNCSEHIPSTIAVVGATGSGVSTAVANLLGLFYIPQVSYASSSRLLSNKNQFKSFLRTIPNDEHQATAMADIIEYFRWNWVGTIAADDDYGRPGIEKFREEAEERDICIDFSELISQYSDEEEIQHVVEVIQNSTAKVIVVFSSGPDLEPLIKEIVRRNITGKIWLASEAWASSSLIAMPQYFHVVGGTIGFALKAGQIPGFREFLKKVHPRKSVHNGFAKEFWEETFNCHLQEGAKGPLPVDTFLRGHEESGDRFSNSSTAFRPLCTGDENISSVETPYIDYTHLRISYNVYLAVYSIAHALQDIYTCLPGRGLFTNGSCADIKKVEAWQVLKHLRHLNFTNNMGEQVTFDECGDLVGNYSIINWHLSPEDGSIVFKEVGYYNVYAKKGERLFINEEKILWSGFSREVPFSNCSRDCLAGTRKGIIEGEPTCCFECVECPDGEYSDETDASACNKCPDDFWSNENHTSCIAKEIEFLSWTEPFGIALTLFAVLGIFLTAFVLGVFIKFRNTPIVKATNRELSYLLLFSLLCCFSSSLFFIGEPQDWTCRLRQPAFGISFVLCISCILVKTNRVLLVFEAKIPTSFHRKWWGLNLQFLLVFLCTFMQIVICVIWLYTAPPSSYRNQELEDEIIFITCHEGSLMALGFLIGYTCLLAAICFFFAFKSRKLPENFNEAKFITFSMLIFFIVWISFIPAYASTYGKFVSAVEVIAILAASFGLLACIFFNKIYIILFKPSRNTIEEVRCSTAAHAFKVAARATLRRSNVSRKRSSSLGGSTGSTPSSSISSKSNSEDPFPQPERQKQQQPLALTQQEQQQQPLTLPQQQRSQQQPRCKQKVIFGSGTVTFSLSFDEPQKNAMAHRNSTHQNSLEAQKSSDTLTRHEPLLPLQCGETDLDLTVQETGLQGPVGGDQRPEVEDPEELSPALVVSSSQSFVISGGGSTVTENVVNS

Variants of: B1
Assay: NanoBiT split-luciferase
Conditions: with LgBiT-N-AP2σ-WT; N = 6; read off a plot

response	Variant
3.2	chain 2 L994A L995A
3.6	chain 2 R990A H991A E992A P993A L994A L995A

Same assay, conditions: with LgBiT-N-AP2σ-WT; N = 7; read off a plot

response	Variant
2.4	chain 2 L994A L995A
4.8	chain 2 S959A
4.9	chain 2 S985A
4.9	chain 2 T987A
4.7	chain 2 T989A

Same assay, conditions: with LgBiT-N-AP2σ-WT; N = 10; read off a plot

response	Variant
2.1	chain 2 L994A L995A
3	chain 2 H991A
4.5	chain 2 P993A
3.8	chain 2 R990A
